The results in this text go back to patent publication US6777540 (dated 2004).

For assay [1], the target named is T1, soluble Fas ligand molecule (human Fas ligand released into the supernatant of COS cells transfected with … (human, UniProt P48023 130-281, limits assumed)).
T1 sequence (looked up): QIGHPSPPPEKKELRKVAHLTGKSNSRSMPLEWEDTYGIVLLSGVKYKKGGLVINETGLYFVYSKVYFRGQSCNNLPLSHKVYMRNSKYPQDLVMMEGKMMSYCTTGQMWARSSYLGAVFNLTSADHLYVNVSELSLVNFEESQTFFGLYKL
Nature of the assay: cell-based or functional assay.

Assay [2] has as its target T2, Fas ligand peptide YPQDLVMMEGKMMSY (218-232 positions) (human).
T2 construct: Synthetic 15-mer immobilized on a PepSet pin
T2 peptide: YPQDLVMMEGKMMSY
Briefly: PepSet pin ELISA, hybridoma culture supernatant, HRP anti-mouse IgG. The method, then:
(§1) (9) After removal of the pins of PepSet from the plate, 50 μl of 2N H_2SO_4 was added to the wells to quench the reaction.
(§2) Thus, it has been shown that the anti-Fas ligand antibody produced by NOK1 and NOK4 hybridomas recognize the region, […]-[…] (SEQ ID NO:139), of Fas ligand, whereas the anti-Fas ligand antibody of NOK2 hybridoma recognizes the region, […]-[…] (SEQ ID NO:140), of Fas ligand.

In assay [3] the target is T3, Fas ligand peptide VMMEGKMMSYCTTGQ (223-237 positions) (human).
T3 construct: Synthetic 15-mer immobilized on a PepSet pin
T3 peptide: VMMEGKMMSYCTTGQ
The description is as above. As for the experimental part:
as §1, §2

The target in assay [4] is T4, Fas ligand peptide KMMSYCTTGQMWARS (228-242 positions) (human).
T4 construct: Synthetic 15-mer immobilized on a PepSet pin
T4 peptide: KMMSYCTTGQMWARS
Described as above. The method, then:
as §1, §2

B1: RNOK201 (humanized NOK2 antibody, RNOK2VHver11 with RNOK2VLver1) (antibody, V domains shown)
VH: QVQLVQSGAEVKKPGASVKVSCKASGYTFTNYWIGWVKQAPGQGLEWIGYLYPGGLYTNYNEKFKGKATMTADTSTNTAYMELSSLRSEDTAVYYCARYRDYDYAMDYWGQGTLVTVSS
VL: DVVMTQTPSSLSASVGDRASISCKSTKSLLNSDGFTYLGWCQQKPGQSPQLLIYLVSNRFSGVPDRFSGSGSGTDFTLKISSLQPEDIATYYCFQSNYLPLTFGQGTKVEIKR
In the case of B1, the “apoptosis inhibition: viable rate of Fas-WR19L target cells with soluble Fas ligand, Alamar Blue fluorescence, 17 h” value (“apoptosis inhibition: viable rate” for short) in assay [1] is at least 90%.

B2: RNOK202 (humanized NOK2 antibody, RNOK2VHver11 with RNOK2VLver21) (antibody, V domains shown)
VH: QVQLVQSGAEVKKPGASVKVSCKASGYTFTNYWIGWVKQAPGQGLEWIGYLYPGGLYTNYNEKFKGKATMTADTSTNTAYMELSSLRSEDTAVYYCARYRDYDYAMDYWGQGTLVTVSS
VL: DVVMTQTPLSLPVTPGEPASISCKSTKSLLNSDGFTYLGWCLQKPGQSPQLLIYLVSNRFSGVPDRFSGSGSGTDFTLKISRVEAEDVGVYYCFQSNYLPLTFGQGTKLEIKR
Consider B2, for which, in assay [1], the “apoptosis inhibition: viable rate” value is at least 90%.

B3: RNOK203 (humanized NOK2 antibody, RNOK2VHver11 with RNOK2VLver22) (antibody, V domains shown)
VH: QVQLVQSGAEVKKPGASVKVSCKASGYTFTNYWIGWVKQAPGQGLEWIGYLYPGGLYTNYNEKFKGKATMTADTSTNTAYMELSSLRSEDTAVYYCARYRDYDYAMDYWGQGTLVTVSS
VL: DVVMTQTPLSLPVTLGQPASISCKSTKSLLNSDGFTYLGWCLQKPGQSPQLLIYLVSNRFSGVPDRFSGSGSGTDFTLKISRVEAEDVGVYYCFQSNYLPLTFGQGTKLEIKR
For the molecule B3, the “apoptosis inhibition: viable rate” value in assay [1] is at least 90%.

B4: NOK2 antibody (mouse anti-Fas ligand monoclonal antibody of hybridoma NOK2, FERM BP-5045) (antibody, V domains shown)
VH: QVHLQQSGAELVRPGTSVKMSCKAAGYTFTNYWIGWVKQRPGHGLEWIGYLYPGGLYTNYNEKFKGKATLTADTSSSTAYMQLSSLTSEDSAIYYCARYRDYDYAMDYWGQGTSVTVSS
VL: DVVLTQTPLSLPVNIGDQASISCKSTKSLLNSDGFTYLGWCLQKPGQSPQLLIYLVSNRFSGVPDRFSGSGSGTDFTLKISRVEAEDLGVYYCFQSNYLPLTFGSGTKLEIKR
notes: Mouse IgG, purified on protein G; kappa light chain; Those are derived from the cloned PCR product and may hold leader or primer residues; also called mouse NOK2 immunoglobulin; NOK2 immunoglobulin
As for B4, the binding result in assay [2], in assay [3] and in assay [4] was “binds” throughout.
